Where “and” joins values, the source holds several entries; their conditions need not be identical. Equal entries are not always repeated. Where two headings read alike, the source gives them in different places.
How the values were obtained:
[1] = molecular target: SARS-COV-2 spike protein (Wuhan) expressed on transfected cells (SARS-CoV-2 (Wuhan), UniProt P0DTC2 14-1273)
[2] = molecular target: T1, SARS-COV-2 spike (614G-del18) (SARS-CoV-2, UniProt P0DTC2 14-1255); assay: cell-based or functional assay
[3] = molecular target: T1, SARS-COV-2 spike (614G-del18)
[4] = molecular target: T1, SARS-COV-2 spike (614G-del18); remark: listed apart in the source
[5] = molecular target: SARS-COV-2 Omicron XBB spike (pCG1, del18) (SARS-CoV-2 Omicron XBB, UniProt P0DTC2 14-1255); assay: cell-based or functional assay
[6] = molecular target: SARS-COV-2 Omicron BA.1 spike (pCG1, del18) (SARS-CoV-2 Omicron BA.1, UniProt P0DTC2 14-1255); assay: cell-based or functional assay
[7] = molecular target: SARS-COV-2 Omicron BA.4.6 spike (pCG1, del18) (SARS-CoV-2 Omicron BA.4.6, UniProt P0DTC2 14-1255); assay: cell-based or functional assay
[8] = molecular target: SARS-COV-2 Omicron BA.2.75 spike (pCG1, del18) (SARS-CoV-2 Omicron BA.2.75, UniProt P0DTC2 14-1255); assay: cell-based or functional assay
[9] = molecular target: SARS-COV-2 Omicron BQ.1.1 spike (pCG1, del18) (SARS-CoV-2 Omicron BQ.1.1, UniProt P0DTC2 14-1255); assay: cell-based or functional assay
[10] = molecular target: SARS-COV-2 Omicron BA.2 spike (pCG1, del18) (SARS-CoV-2 Omicron BA.2, UniProt P0DTC2 14-1255); assay: cell-based or functional assay
[11] = molecular target: T1, SARS-COV-2 spike (614G-del18); assay: flow cytometry, transfected HEK cells, MFI GFP+/GFP- cells [1/3]
[12] = molecular target: T1, SARS-COV-2 spike (614G-del18); assay: flow cytometry, transfected HEK cells, MFI GFP+/GFP- cells [3/3]
[13] = molecular target: T1, SARS-COV-2 spike (614G-del18); assay: flow cytometry, transfected HEK cells, MFI GFP+/GFP- cells [2/3]

B1: VHH R3_DC23 (VHH)
VHH: QVQLQESGGGLVQAGDSLTLSCAVSGRIFSTYTMGWFRQAPGKEREFVAAVRWGAGTIYYADSMKGRFTISRDSAKNTVDLQMNSTKPEDTAVYYCGAAYVSKANYGSLWYQDSRRYDYWGQGTQVTVSS
For B1, the “EC50 (read off the curve)” value [1] was ~10 ng/mL, the “IC50, neutralisation of VSV pseudotyped with spike, Vero E6 cells” value [2] was < 1 ng/mL and the “IC50, neutralisation of VSV spike pseudotypes” value [2] was 1.2 ng/ml and 80 µM and ~1 ng/ml. The “EC50 (read off the curve)” value [3] was ~10 ng/mL.

B2: R3_DC23-Fc(YTE) (Fc fusion)
chain: DVQLVESGGGLVQPGGSLRLSCAVSGRIFSTYTMGWFRQAPGKEREFVAAVRWGAGTIYYADSVKGRFTISRDNAKNTVYLQMNSLRPEDTAVYYCGAAYVSKANYGSLWYQDSRRYDYWGQGTLVTVSSGGGGSGGGGSDKTHTCPPCPAPELLGGPSVFLFPPKPKDTLYITREPEVTCVVVDVSHEDPEVKFNWYVDGVEVHNAKTKPREEQYNSTYRVVSVLTVLHQDWLNGKEYKCKVSNKALPAPIEKTISKAKGQPREPQVYTLPPSRDELTKNQVSLTCLVKGFYPSDIAVEWESNGQPENNYKTTPPVLDSDGSFFLYSKLTVDKSRWQQGNVFSCSVMHEALHNHYTQKSLSLSPG
With B2 the “EC50 (read off the curve)” value [4] was ~100 ng/mL, the “IC50, neutralisation of VSV pseudotyped with spike” value [5] was ~1 ng/mL and the “EC50, neutralisation of VSV pseudotyped with spike” value (“EC50, neutralisation” for short) [6] was 1 ng/mL. For the same binder, the “IC50, neutralisation of VSV pseudotyped with spike” value [6] was ~1 ng/mL, the “EC50, neutralisation” value [2] was 1 ng/mL and the “IC50, neutralisation of VSV pseudotyped with spike” value [7] was ~1 ng/mL. For the same binder, the “IC50, neutralisation of VSV pseudotyped with spike” value [8] was ~1 ng/mL, the “IC50, neutralisation of VSV pseudotyped with spike” value [9] was ~1 ng/mL and the “EC50, neutralisation” value [10] was 0.35 ng/mL. The “IC50, neutralisation of VSV pseudotyped with spike” value [10] was ~1 ng/mL.

B3: VHH R3_C4 (VHH)
VHH: QVQLQESGGGLVQAGDSLRLSCAVSGRPFSTYTMGWFRQAPGKEREFVAAMRWSGGTIYYADSVKGRFTISRDNDKNTVNLEMNSLKPEDTAVYYCAAAYVSKANYGSLWYRASGLYDYWGQGTQVTVSS
B3: binds [11].

B4: VHH R4_DC16 (VHH)
VHH: QVQLQESGGGLVQAGDSLRLSCAVSGRPFSTYTMGWFRQAPGKEREFVAAMRWSGGTIYYADSVKGRFTISRDNAQNTVNLQMNSLKPEDTAVYYCAAAYVSKANYGSSWYRNSGLYDYWGQGTQVTVSS
B4: binds [12].

B5: VHH R3_DC9 (VHH)
VHH: QVQLQESGGGLVQTGDSLRLSCAVSGRPFSTYTMGWFRQAPGKEREFVASMRWSGGTMYYSDSVKGRFTISRDNDKNTVNLQMNSLKPEDTAVYYCAAAYVSKANYGSLWYRNSGLYDYWGQGTQVTVSS
B5: binds [11].

B6: VHH R4_DC20 (VHH)
VHH: QVQLQESGGGLVQTGDSLRLSCAVSGRPFSTYTMGWFRQAPGKEREFVASMRWSGGTMNYADSVKGRFTISRDNDQNTVNLQMNSLKPEDTAVYYCAAAYVSKANYGSLWYRNSGLYDYWGQGTQVTVSS
B6: binds [12].

B7: VHH R3_DC2 (VHH)
VHH: QVQLQESGGGLVQTGDSLRLSCAVSGRPFSTYTMGWFRQAPGKEREFVASMRWSGGTKYYSDSVKGRFSISRDNDQNTVNLQMNSLKPEDTAVYYCAAAYVSKANYGSLWYRNSGLYDYWGQGTQVTVSS
B7: binds [11].

B8: VHH R4_DC9 (VHH)
VHH: QVQLQESGGGLVQAGDSLRLSCAASGRIFSTYTMGWFRQAPGMEREFVAAIRWSGSTVYYADSVKGRFTISRDNAKNTVYLQMNSLKPEDTAVYYCAAARVSKANYGTLWYRASGLYDYWGQGTQVTVSS
With B8 the “IC50, neutralisation of VSV pseudotyped with spike, Vero E6 cells” value [2] was ~100 ng/mL and the “IC50, neutralisation of VSV spike pseudotypes” value [2] was 68.9 ng/ml and 4680 µM.

B9: VHH R4_DC13 (VHH)
VHH: QVQLQESGGGLVQTGDSLRLSCAVSGRPFSTYTMGWFRQAPGKEREFVASMRWSGGTVYYSDSVKGRFTISRDNDKNTVNLQMNNLKPEDTAVYYCAAAYVSKANYGSFWYRNSDLYDYWGQGTQVTVSS
B9: binds [13].

B10: VHH R3_DC20 (VHH)
VHH: QVQLQESGGGLVQAGDSLRLSCAVSGRPFSTYTMGWFRQAPGKEREFVAAMRWSGGTIYYADSVKGRFTISRDNAQNTVNLQMNSLEPEDTAVYYCAAAYVSKANYGSLWYRNSGLYDYWGQGTQVTVSS
B10: binds [11].

B11: VHH R4_DC6 (VHH)
VHH: QVQLQESGGGLVQAGDSLRLSCAASGRILSTFTMGWFRQAPGKEREFVAAMRWNGGTKNYADSVKGRFTISRDNANSVVYLQMNSTKPEDTAVYYCAAAYVSKANYGSLWYRTPSLYDYWGQGTQVTVSS
B11 was tested, and the “EC50 (read off the curve)” value [3] was ~2 ng/mL.

From US20250313611A1 (VIB VZW, published 2025)
